US20190367628A1 (Novartis, published 2019)

Tests used:
Human BCMA-His-APP-Avi = biological target: T1, Human BCMA-His-APP-Avi (human, biotinylated (captured on streptavidin plate; site not stated)); experiment: monoclonal phage ELISA, anti-M13-HRP, Abs450 against fold dilution of phage
T1 construct: also called His-APP-Avi-tagged human BCMA
T1 chain: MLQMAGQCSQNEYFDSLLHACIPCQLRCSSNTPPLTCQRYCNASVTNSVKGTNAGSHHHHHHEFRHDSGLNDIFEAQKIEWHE

[1] = biological target: T2, human BCMA (antigen of the surface plasmon resonance measurement of PI-61) (human, UniProt Q02223 1-54, limits assumed); experiment: surface plasmon resonance
T2 construct: Construct used in the SPR experiment is not described
T2 sequence (looked up): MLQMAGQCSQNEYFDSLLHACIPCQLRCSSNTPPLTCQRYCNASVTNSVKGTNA

[2] = biological target: T3, cynomolgus BCMA (antigen of the surface plasmon resonance measurement of PI-61) (cynomolgus, UniProt A0A2K5UD97 1-53); experiment: surface plasmon resonance
T3 construct: Construct used in the SPR experiment is not described; also called cyno BCMA; not shown: The carrier or tag of the soluble cyno BCMA used in SPR

[3] = biological target: T4, recombinant cynomolgus monkey BCMA (cynomolgus monkey, UniProt A0A2K5UD97 1-53); experiment: solution equilibrium titration (SET, MSD); apparent KD; bispecific at a fixed concentration, BCMA titrated in solution
T4 construct: The SET method says only 'recombinant cynomolgus monkey BCMA'; also called Cyno BCMA; cynoBCMA

recombinant human BCMA = biological target: T5, recombinant human BCMA (human, UniProt Q02223 1-54, limits assumed); experiment: as above
T5 construct: The SET method says only 'recombinant human BCMA'; also called hBCMA; TNFRSF17
T5 sequence (looked up): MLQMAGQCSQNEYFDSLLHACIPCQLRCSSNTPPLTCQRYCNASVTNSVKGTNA

Cyno BCMA APP-Avi [4] = biological target: T6, Cyno BCMA APP-Avi (cynomolgus, biotinylated (site not stated)); experiment: flow cytometry of single yeast clone displaying the scFv, labelled with 900 pM biotinylated cyno BCMA, streptavidin/neutravidin-DyLight 633 detection
T6 construct: It was used as soluble biotinylated antigen; also called biotinylated cyno BCMA
Protocol: (§1) For the fourth round of screening, yeast from the third round output were pelleted, washed, and resuspended in 200 mL SD-ura broth with 1% raffinose, 2% galactose, and incubated for 22 hours at 20° C. to induce expression. […] The first sample was incubated with human BCMA for 45 min at room temperature, pelleted, washed twice with PBSF, and then resuspended in 1 mL PBSF (PBS with 0.1% BSA). The second sample was incubated with human BCMA for 45 minutes at room temperature. Both samples were pelleted, washed twice with PBSF, and resuspended in 200 uL of PBSF+a 1:30 dilution of rabbit anti-cMyc-FITC (Abcam)+a 1:100 dilution of neutravidin-dylight 633 (Invitrogen). Samples were incubated at 4 C for 30 min, pelleted, washed twice with PBSF, resuspended in 3 mL PBSF, filtered through 40 um filters, then sorted using flow cytometry on a FACS Aria cell sorter (Becton Dickinson Biosciences, San Jose, Calif.). Approximately 5×10⁵ yeast were isolated and resuspended in 4 mL SD-ura broth with 2% glucose and grown overnight at 30° C.
(§2) Each sample plate was used to create three test plates for flow cytometric analysis. […] Labeling was essentially as above for sorting, except using 1:200 each streptavidin-dylight 633 (Invitrogen) and neutravidin-dylight 633 (Invitrogen) in PBSF as secondary reagent and excluding any anti-cMyc antibody. The test plates were analyzed on a Cytoflex flow cytometer (Beckman Coulter, Brea, Calif.)

Cyno BCMA APP-Avi [5] = biological target: T6, Cyno BCMA APP-Avi; experiment: flow cytometry of single yeast clone displaying the scFv, labelled with 20 nM biotinylated cyno BCMA, streptavidin/neutravidin-DyLight 633 detection
Protocol: as §1, §2

T6 sequence (chain, as listed by the source limits assumed): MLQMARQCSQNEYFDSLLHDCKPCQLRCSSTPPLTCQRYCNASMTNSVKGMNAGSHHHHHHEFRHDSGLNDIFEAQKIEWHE
T3 sequence (A0A2K5UD97 entry or part of it limits assumed): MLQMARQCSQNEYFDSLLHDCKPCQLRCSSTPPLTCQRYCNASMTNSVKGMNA

B1: PI-61 (monoclonal phage clone) (other)
VH: QVQLQESGGGVVQPGRSLRLSCAASGFTFSSYGMHWVRQAPGKGLEWVAVISYDGSNKYYADSVKGRFTISRDNSKNTLYLQMNSLRAEDTAVYYCGGSGYALHDDYYGLDVWGQGTLVTVSS
VL: QSALTQPASVSGSPGQSITISCTGTSSDVGGYNYVSWYQQHPGKAPKLMIYDVSNRPSGVSNRFSGSKSGNTASLTISGLQAEDEADYYCSSYTSSSTLYVFGSGTKVTVL
binding result (Human BCMA-His-APP-Avi): binds

B2: PI-61 antibody (as measured by surface plasmon resonance) (antibody, V domains shown)
VH: QVQLQESGGGVVQPGRSLRLSCAASGFTFSSYGMHWVRQAPGKGLEWVAVISYDGSNKYYADSVKGRFTISRDNSKNTLYLQMNSLRAEDTAVYYCGGSGYALHDDYYGLDVWGQGTLVTVSS
VL: QSALTQPASVSGSPGQSITISCTGTSSDVGGYNYVSWYQQHPGKAPKLMIYDVSNRPSGVSNRFSGSKSGNTASLTISGLQAEDEADYYCSSYTSSSTLYVFGSGTKVTVL
notes: also called parental clone
Kd [1]: ~34 nM | Kd [2]: ~240 nM

B3: BCMA-CD3 bispecific antibody AB3 (bispecific antibody)
chain 1: not shown
chain 2: QSALTQPASVSGSPGQSITISCTGTSSDVGGYNYVSWYQQHPGKAPKLMIYDVSNRLRGVSNRFSGSKSGNTASLTISGLQAEDEADYYCSSYTSSSALYVFGSGTKVTVLGQPKAAPSVTLFPPSSEELQANKATLVCLISDFYPGAVTVAWKADSSPVKAGVETTTPSKQSNNKYAASSYLSLTPEQWKSHRSYSCQVTHEGSTVEKTVAPTECS
chain 3: not shown
Kd [3]: 0.105 nM | Kd (recombinant human BCMA): 0.0615 nM

B4: H2/L2-36 scFv (scFv)
scFv: QAQLQSSGGGVVQPGRSLRLSCAASGFTFSSYGMHWVRQAPGKGLEWVAVISYKGSNKYYADSVKGRFTISRDNSKNTLYLQMNSLRAEDTAVYYCGGSGYALHDDYYGLDVWGQGTLVTVSSSGGGGSGGGGSGGGGSGGGGSQSALTQPASVSGSPGQSITISCTGTSSDVGGYNYVSWYQQHPGKAPKLMIYEVSNRLRGVSNRFSGSKFGNTASLTISGLQAEDEADYYCSSYTSSSTLYVFGSGTKVTVL
MFI (Cyno BCMA APP-Avi [4]): 5590 MFI | MFI (Cyno BCMA APP-Avi [5]): 6430 MFI

B5: H2/L2-83 scFv (scFv)
scFv: QAQLQGSGGGVVQPGRSLRLSCAASGFTFSSYGMHWVRQAPGKGLEWVAVISYKGSNKYYADSVKGRFTISRDNSKNTLYLQMNSLRAEDTAVYYCGGSGYALHDDYYGLDVWGQGTLVTVSSSGGGGSGGGGSGGGGSGGGGSQSALTQPASVSGSPGQSITISCTGTSSDVGGYNYVSWYQQHPGKAPKLMIYEVSNRLRGVSNRFSGSKFGNTASLTISGLQAEDEADYYCSSYTSSSTLYVFGSGTKVTVL
MFI (Cyno BCMA APP-Avi [4]): 4880 MFI | MFI (Cyno BCMA APP-Avi [5]): 10700 MFI

B6: H2/L2-47 scFv (scFv)
scFv: QVQLQSSEGGVVQPGRSLRLSCAASGFTFSSYGMHWVRQAPGKGLEWVAVISYKGSNKYYADSVKGRFTISRDNSKNTLYLQMNSLRAEDTAVYYCGGSGYALHDDYYGLDVWGQGTLVTVSSSGGGGSGGGGSGGGGSGGGGSQSALTQPASVSGSPGQSITISCTGTSSDVGGYNYVSWYQQHPGKAPKLMIYDVSNRPWGVSNRFSGSKFGNTASLTISGLQAEDEADYYCSSYTSSSTLYVFGSGTKVTVL
MFI (Cyno BCMA APP-Avi [4]): 5930 MFI | MFI (Cyno BCMA APP-Avi [5]): 14200 MFI

B7: H2/L2-20 scFv (scFv)
scFv: QAQLQSSGGGVVQPGRSLRLSCAASGFTVSSYGMHWVRQAPGKGLEWVAVISYTGSNKYYADSVKGRFTISRDNSKNTLYLQMNSLRAEDTAVYYCGGSGYALHDDYYGLDVWGQGTLVTVSSSGGGGSGGGGSGGGGSGGGGSQSALTQPASVSGSPGQSITISCTGTSSDVGGYNYVSWYQQHPGKAPKLMIYDVSNRLRGVSNRFSGSKFGNTASLTISGLQAEDEADYYCSSYTSSSALYVFGSGTKVTVL
MFI (Cyno BCMA APP-Avi [4]): 7030 MFI | MFI (Cyno BCMA APP-Avi [5]): 20700 MFI

B8: H2/L2-88 scFv (scFv)
scFv: QVQLQSSEGGVVQPGRSLRLSCAASGFTFSSYGMHWVRQAPGKGLEWVAVISYKGSNKYYADSVKGRFTISRDNSKNTLYLQMNSLRAEDTAVYYCGGSGYALHDDYYGLDVWGQGTLVTVSSSGGGGSGGGGSGGGGSGGGGSQSALTQPASVSGSPGQSITISCTGTSSDVGGYNYVSWYQQHPGKAPKLMIYEVSNRLRGVSNRFSGSKFGNTASLTISGLQAEDEADYYCSSYTSSSALYVFGSGTKVTVL
MFI (Cyno BCMA APP-Avi [4]): 6440 MFI | MFI (Cyno BCMA APP-Avi [5]): 4480 MFI

B9: H2/L2-34 scFv (scFv)
scFv: QVQLQDSEGGVVQPGRSLRLSCAASGFTFSSYGMHWVRQAPGKGLEWVAVISYTGTKKYYADSVKGRFTISRDNSKNTLYLQMNSLRAEDTAVYYCGGSGYALHDDYYGLDVWGQGTLVTVSSSGGGGSGGGGSGGGGSGGGGSQSALTQPASVSGSPGQSITISCTGTSSDVGGYNYVSWYQQHPGKAPKLMIYDVSNRPWGVSNRFSGSKFGNTASLTISGLQAEDEADYYCSSYTSSSALYVFGSGTKVTVM
MFI (Cyno BCMA APP-Avi [4]): 6050 MFI | MFI (Cyno BCMA APP-Avi [5]): 10400 MFI

B10: H2/L2-18 scFv (scFv)
scFv: QAQLQGSGGGVVQPGRSLRLSCAASGFTFSSYGMHWVRQAPGKGLEWVAVISYKGSHKYYADSVKGRFTISRDNSKNTLYLQMNSLRAEDTAVYYCGGSGYALHDDYYGLDVWGQGTLVTVSSSGGGGSGGGGSGGGGSGGGGSQSALTQPASVSGSPGQSITISCTGTSSDVGGYNYVSWYQQHPGKAPKLMIYDVSNRPWGVSNRFSGSKFGNTASLTISGLQAEDEADYYCSSYTSSSTLYVFGSGTKVTVL
MFI (Cyno BCMA APP-Avi [4]): 7180 MFI | MFI (Cyno BCMA APP-Avi [5]): 19900 MFI

B11: H2/L2-68 scFv (scFv)
scFv: QAQLQSSEGGVVQPGRSLRLSCAASGFTFSSYGMHWVRQAPGKGLEWVAVISYRGFNKYYADSVKGRFTISRDNSKNTLYLQMNSLRAEDTAVYYCGGSGYALHDDYYGQDVWGQGTLVTVSSSGGGGSGGGGSGGGGSGGGGSQSALTQPASVSGSPGQSITISCTGTSSDVGGYNYVSWYQQHPGKAPKLMIYDVSNRLSGVSNRFSGSKFGNTASLTISGLQAEDEADYYCSSYTSSSTLYVFGSGTKVTVL
MFI (Cyno BCMA APP-Avi [4]): 7380 MFI | MFI (Cyno BCMA APP-Avi [5]): 16200 MFI

B12: H2/L2-80 scFv (scFv)
scFv: QVQLQSSGGGVVQPGRSLRLSCAASGFTFSSYGMHWVRQAPGKGLEWVAVISYTGSNKYYADSVKGRFTISRDNSKNTLYLQMNSLRAEDTAVYYCGGSGYALHDDYYGLDVWGQGTLVTVSSSGGGGSGGGGSGGGGSGGGGSQSALTQPASVSGSPGQSITISCTGTSSDVGGYNYVSWYQQHPGKAPKLMIYDVSNRAWGVSNRFSGSKFGNTASLTISGLQAEDEADYYCSSYTSSSALYVFGSGTKVTVL
MFI (Cyno BCMA APP-Avi [4]): 6540 MFI | MFI (Cyno BCMA APP-Avi [5]): 17900 MFI
